This note sets out measurements from patent US20230212319A1, “NOVEL ANTIGEN BINDING DOMAINS AND SYNTHETIC ANTIGEN RECEPTORS INCORPORATING THE SAME” (University of Southern California, priority 2020, published 2023).

Assay type in all cases: cell-based
One assay deals with Nalm6 cells. The assay can be described thus: JNG assay, co-culture with Nalm6 cells. As to conditions: co-culture with Nalm6. The method, boiled down: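 Stable SAR lines in NFAT-GFP Jurkat background; coculture with target line ~4–18 h, E:T ~1:2; flow readout of GFP; positive if %GFP+ exceeds parental line; semi-quantitative grading +/- (~5%) through 5+ (~50%).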
For another assay, the system named is L363 cells. The assay can be described thus: JNG assay, co-culture with L363 cells. As to conditions: co-culture with L363. The method, boiled down: (§1)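 Jurkat-NFAT-GFP (JNG) cells stably expressing SAR constructs via lentiviral transduction and puromycin/blasticidin selection were cocultured with target cells at E:T ~1:2 for ~4–18 h. NFAT-driven GFP was measured by FACS versus parental JNG cells; scores +/- to 5+ denote ~5–50% GFP-positive cells.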

The next assay relates to RAJI cells. The assay can be described thus: JNG assay, co-culture with RAJI cells. As to conditions: JNG cells expressing construct, co-culture with Raji. The essentials:
as §1

For another assay, the system named is RS;411. The assay can be described thus: JNG assay, co-culture with RS;411 cells. As to conditions: co-culture with RS411. The essentials:
as §1

The test system of a further assay is RAJI-CD19-KO cells. The assay can be described thus: JNG assay, co-culture with RAJI-CD19-KO cells. The conditions noted are these: co-culture with Raji-CD19-KO. The essentials:
as §1

Residue numbers refer to the chain shown, from its start.

B1: 22068 (protein)
chain: MALPVTALLLPLALLLHAARPQLQLQESGPGLVKPSETLSLTCTVSGDSISSGDYYWGWIRQPPGKGLEWIGHIYYSGVTYYNPSLKSRVTISVDTSRNQFSLKLSSVTAADTAVYYCTREDSSNWRSRGQGTLVTVSSLEGGGGSGGGGSGGGGSVEDLKNVFPPEVAVFEPSKAEIAHTQKATLVCLATGFYPDHVELSWWVNGKEVHSGVCTDPQPLKEQPALNDSRYCLSSRLRVSATFWQNPRNHFRCQVQFYGLSENDEWTQDRAKPVTQIVSAEAWGRADCGITSASYHQGVLSATILYEILLGKATLYAVLVSALVLMAMVKRKDSRGRAKRSGSGATNFSLLKQAGDVEENPGPTSMDWIWRILFLVGAATGAHSFEVQLLESGGGLIQPGGSLRLSCAASGFTFSSHAMTWVRQAPGKGLEWVSAISGSGDYTHYADSVKGRFTISRDNSKNTVYLQMNSLRAEDSAVYYCAKDEDGGSLLGHRGQGTLVTVSSTRIQNPDPAVYQLRDSKSSDKSVCLFTDFDSQTNVSQSKDSDVYITDKCVLDMRSMDFKSNSAVAWSNKSDFACANAFNNSIIPEDTFFPSPESSCDVKLVEKSFETDTNLNFQNLSVIGFRILLLKVAGFNLLMTLRLWSSRAKRSGSGVKQTLNFDLLKLAGDVESNPGPSRGHMTEYKPTVRLATRDDVPRAVRTLAAAFADYPATRHTVDPDRHIERVTELQELFLTRVGLDIGKVWVADDGAAVAVWTTPESVEAGAVFAEIGPRMAELSGSRLAAQQQMEGLLAPHRPKEPAWFLATVGVSPDHQGKGLGSAVVLPGVEAAERAGVPAFLETSAPRNLPFYERLGFTVTADVEVPEGPRTWCMTRKPGA
Take B1: in the assay on Nalm6 cells, the “NFAT-GFP ASSAY: Nalm6” value is “+/- (refer to approximately 5%, 10%, 20%, 30%, 40% and 50% GFP positive cells)”. Besides, the “NFAT-GFP ASSAY: L363” value in the assay with L363 cells is “+ (refer to approximately 5%, 10%, 20%, 30%, 40% and 50% GFP positive cells)”. The “NFAT-GFP ASSAY: Raji” value in the assay with RAJI cells was “+ (refer to approximately 5%, 10%, 20%, 30%, 40% and 50% GFP positive cells)”. The “NFAT-GFP ASSAY: RS411” value with RS;411 was “+/- (refer to approximately 5%, 10%, 20%, 30%, 40% and 50% GFP positive cells)”.

B2: 22123 (protein)
chain: MALPVTALLLPLALLLHAARPACEVQLLESGGGLIQPGGSLRLSCAASGFTFSSHAMTWVRQAPGKGLEWVSAISGSGDYTHYADSVKGRFTISRDNSKNTVYLQMNSLRAEDSAVYYCAKDEDGGSLLGHRGQGTLVTVSSGTGGGGSGGGGSGGGGSEFDIQMTQSPSSLSASVGDRVTITCKASDHINNWLAWYQQKPGQAPKLLIYGATTLETGVPSRFSGSGSGTDYTLTISSLQPEDFATYYCQQSWNTPWTFGQGTKLEIKRLEDLKNVFPPEVAVFEPSKAEIAHTQKATLVCLATGFYPDHVELSWWVNGKEVHSGVCTDPQPLKEQPALNDSRYCLSSRLRVSATFWQNPRNHFRCQVQFYGLSENDEWTQDRAKPVTQIVSAEAWGRADCGITSASYHQGVLSATILYEILLGKATLYAVLVSALVLMAMVKRKDSRGRAKRSGSGATNFSLLKQAGDVEENPGPTSATMDWIWRILFLVGAATGAHSGPQVQLQESGGGLAQAGGSLRLSCAASGRTFSMGWFRQAPGKEREFVAAITYSGGSPYYASSVRGRFTISRDNAKNTVYLQMNSLKPEDTAVYYCAANPTYGSDWNAENWGQGTQVTVSSGSGGGGSGGGGSGGGGSFEQVQLQQPGAELVKPGASVKMSCKASGYAFSSYWINWMKQKPGQGLEWIGQIYPGDGDTNYNGKFKGRATLTADTSSSTAYMQLSSLTSEDSAVYFCARSITTVVGCAMDYWGQGTSVTVSSTRIQNPDPAVYQLRDSKSSDKSVCLFTDFDSQTNVSQSKDSDVYITDKCVLDMRSMDFKSNSAVAWSNKSDFACANAFNNSIIPEDTFFPSSDVPCDVKLVEKSFETDTNLNFQNLSVIGFRILLLKVAGFNLLMTLRLWSSRAKRSGSGVKQTLNFDLLKLAGDVESNPGPSRGHMTEYKPTVRLATRDDVPRAVRTLAAAFADYPATRHTVDPDRHIERVTELQELFLTRVGLDIGKVWVADDGAAVAVWTTPESVEAGAVFAEIGPRMAELSGSRLAAQQQMEGLLAPHRPKEPAWFLATVGVSPDHQGKGLGSAVVLPGVEAAERAGVPAFLETSAPRNLPFYERLGFTVTADVEVPEGPRTWCMTRKPGA
For B2, the “NFAT-GFP ASSAY: Nalm6” value in the assay on Nalm6 cells was 5+ (refer to approximately 5%, 10%, 20%, 30%, 40% and 50% GFP positive cells). Moreover, the “NFAT-GFP ASSAY: L363” value with L363 cells is 3+ (refer to approximately 5%, 10%, 20%, 30%, 40% and 50% GFP positive cells). For the same molecule, the “NFAT-GFP ASSAY: RS411” value with RS;411 is 4+ (refer to approximately 5%, 10%, 20%, 30%, 40% and 50% GFP positive cells).

B3: 22132 (protein)
chain: B2 chain with Q502E, Q506V, A513V, S560D, R563K
As to B3, the “NFAT-GFP ASSAY: Nalm6” value in the assay with Nalm6 cells was 5+ (refer to approximately 5%, 10%, 20%, 30%, 40% and 50% GFP positive cells). Moreover, the “NFAT-GFP ASSAY: L363” value with L363 cells was 4+ (refer to approximately 5%, 10%, 20%, 30%, 40% and 50% GFP positive cells). In addition, in the assay on RS;411, the “NFAT-GFP ASSAY: RS411” value is 4+ (refer to approximately 5%, 10%, 20%, 30%, 40% and 50% GFP positive cells).

B4: 22226 (protein)
chain: MALPVTALLLPLALLLHAARPACEVQLLESGGGLIQPGGSLRLSCAASGFTFSSHAMTWVRQAPGKGLEWVSAISGSGDYTHYADSVKGRFTISRDNSKNTVYLQMNSLRAEDSAVYYCAKDEDGGSLLGHRGQGTLVTVSSGTGPQGIFGQPGYINEFDIQMTQSPSSLSASVGDRVTITCKASDHINNWLAWYQQKPGQAPKLLIYGATTLETGVPSRFSGSGSGTDYTLTISSLQPEDFATYYCQQSWNTPWTFGQGTKLEIKRLEDLKNVFPPEVAVFEPSKAEIAHTQKATLVCLATGFYPDHVELSWWVNGKEVHSGVCTDPQPLKEQPALNDSRYCLSSRLRVSATFWQNPRNHFRCQVQFYGLSENDEWTQDRAKPVTQIVSAEAWGRADCGITSASYHQGVLSATILYEILLGKATLYAVLVSALVLMAMVKRKDSRGRAKRSGSGATNFSLLKQAGDVEENPGPTSATMDWIWRILFLVGAATGAHSGPEVQLVESGGGLVQAGGSLRLSCAASGRTFSMGWFRQAPGKEREFVAAITYSGGSPYYADSVKGRFTISRDNAKNTVYLQMNSLKPEDTAVYYCAANPTYGSDWNAENWGQGTQVTVSSGSGGGGSGGGGSGGGGSFEQVQLQQPGAELVKPGASVKMSCKASGYAFSSYWINWMKQKPGQGLEWIGQIYPGDGDTNYNGKFKGRATLTADTSSSTAYMQLSSLTSEDSAVYFCARSITTVVGCAMDYWGQGTSVTVSSTRIQNPDPAVYQLRDSKSSDKSVCLFTDFDSQTNVSQSKDSDVYITDKCVLDMRSMDFKSNSAVAWSNKSDFACANAFNNSIIPEDTFFPSPESSCDVKLVEKSFETDTNLNFQNLSVIGFRILLLKVAGFNLLMTLRLWSSRAKRSGSGVKQTLNFDLLKLAGDVESNPGPSRGHMTEYKPTVRLATRDDVPRAVRTLAAAFADYPATRHTVDPDRHIERVTELQELFLTRVGLDIGKVWVADDGAAVAVWTTPESVEAGAVFAEIGPRMAELSGSRLAAQQQMEGLLAPHRPKEPAWFLATVGVSPDHQGKGLGSAVVLPGVEAAERAGVPAFLETSAPRNLPFYERLGFTVTADVEVPEGPRTWCMTRKPGA
In the case of B4, the “NFAT-GFP ASSAY: Nalm6” value in the assay with Nalm6 cells was “+ (refer to approximately 5%, 10%, 20%, 30%, 40% and 50% GFP positive cells)”. The “NFAT-GFP ASSAY: L363” value in the assay on L363 cells was “+ (refer to approximately 5%, 10%, 20%, 30%, 40% and 50% GFP positive cells)”. Also, the “NFAT-GFP ASSAY: Raji” value with RAJI cells is “+/- (refer to approximately 5%, 10%, 20%, 30%, 40% and 50% GFP positive cells)”. The “NFAT-GFP ASSAY: RS411” value in the assay with RS;411 was “+/- (refer to approximately 5%, 10%, 20%, 30%, 40% and 50% GFP positive cells)”.

B5: 22114 (protein)
chain: MALPVTALLLPLALLLHAARPDIQMTQSPSSLSASVGDRVTITCKASDHINNWLAWYQQKPGQAPKLLIYGATTLETGVPSRFSGSGSGTDYTLTISSLQPEDFATYYCQQSWNTPWTFGQGTKLEIKRLEIQNPDPAVYQLRDSKSSDKSVCLFTDFDSQTNVSQSKDSDVYITDKCVLDMRSMDFKSNSAVAWSNKSDFACANAFNNSIIPEDTFFPSSDVPCDVKLVEKSFETDTNLNFQNLSVIGFRILLLKVAGFNLLMTLRLWSSRAKRSGSGVKQTLNFDLLKLAGDVESNPGPTSATMDWIWRILFLVGAATGAHSGPQVQLQESGGGLAQAGGSLRLSCAASGRTFSMGWFRQAPGKEREFVAAITYSGGSPYYASSVRGRFTISRDNAKNTVYLQMNSLKPEDTAVYYCAANPTYGSDWNAENWGQGTQVTVSSGSGGGGSGGGGSGGGGSFEQVQLQQPGAELVKPGASVKMSCKASGYAFSSYWINWMKQKPGQGLEWIGQIYPGDGDTNYNGKFKGRATLTADTSSSTAYMQLSSLTSEDSAVYFCARSITTVVGCAMDYWGQGTSVTVSSTREDLKNVFPPEVAVFEPSKAEIAHTQKATLVCLATGFYPDHVELSWWVNGKEVHSGVCTDPQPLKEQPALNDSRYCLSSRLRVSATFWQNPRNHFRCQVQFYGLSENDEWTQDRAKPVTQIVSAEAWGRADCGITSASYHQGVLSATILYEILLGKATLYAVLVSALVLMAMVKRKDSRGRAKRSGSGATNFSLLKQAGDVEENPGPSRGHMTEYKPTVRLATRDDVPRAVRTLAAAFADYPATRHTVDPDRHIERVTELQELFLTRVGLDIGKVWVADDGAAVAVWTTPESVEAGAVFAEIGPRMAELSGSRLAAQQQMEGLLAPHRPKEPAWFLATVGVSPDHQGKGLGSAVVLPGVEAAERAGVPAFLETSAPRNLPFYERLGFTVTADVEVPEGPRTWCMTRKPGA
Take B5: the “NFAT-GFP ASSAY: Raji-CD19-KO” value with RAJI-CD19-KO cells is 5+ (refer to approximately 5%, 10%, 20%, 30%, 40% and 50% GFP positive cells). For the same molecule, the “NFAT-GFP ASSAY: RS411” value with RS;411 was 5+ (refer to approximately 5%, 10%, 20%, 30%, 40% and 50% GFP positive cells).
